In the supplement of paper PMC7877785:
± gives the uncertainty stated by the source.

Assay: self-splicing fitness, log relative to wild type (ln ratio); higher = more splicing; Tetrahymena group I intron in knt gene, E. coli kanamycin selection, DiMSum; sequences stand for … in CUCUCU…GGAGGGAAAAGUUAUCAGGCAUGCACCUGGUAGCUAGUCUUUAAACCAAUAGAUUGCAUCGGUUUAAAAGGCAAGACCGUCAAAUUGCGGGAAAGGGGUCAACAGCCGUUCAGUACCAAGUCUCAGGGGAAACUUUGAGAUGGCCUUGCAAAGGGUAUGGUAAUAAGCUGACGGACAUGGUCCUAACCACGCAGCCAAGUCCUAAGUCAACAGAUCUUCUGUUGAUAUGGAUGCAGUUCACAGACUAAAUGUCGGUCGGGGAAGAUGUAUUCUUCUCAUAAGAUAUAGUCGGACCUCUCCUUAAUGGGAGCUAGCGGAUGAAGUGAUGCAACACUGGAGCCGCUGGGAACUAAUUUGUAUGCGAAAGUAUAUUGAUUAGUUUUGGAGUACUCGUGGUCG
Method in brief: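 Six replicate transformations of E. coli BL21(DE3) with a pET-22b(+) library were grown overnight at 37°C or 30°C. The library randomised all eight P1ex-region intron nucleotides, the intron lying in the knt kanamycin-resistance gene, and plates were LB agar with or without 25 μg/mL kanamycin plus 100 μg/mL carbenicillin, 50 μM IPTG and 0.2% rhamnose. Pooled colonies were amplicon-sequenced on an Illumina HiSeq 2500, and fitness is the DiMSum error-weighted combination of wild-type-normalised replicate fold changes, kanamycin versus none.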

Sequence | self-splicing fitness (ln) (30 °C) | self-splicing fitness (ln) (37 °C)
AGCCAGCAAUAUUACGCAUA | -2.21 ± 0.15 | -1.34 ± 0.16
AGCCAGCAAUAUUACGCCCC | -1.54 ± 0.24 | 0.277 ± 0.32
AGCCAGCAAUAUUACGCUAA | -2.53 ± 0.18 | -0.465 ± 0.12
AGCCAGCAAUAUUACGCUAU | -1.55 ± 0.12 | -0.833 ± 0.13
AGCCAGCAAUAUUACGCUCA | -1.83 ± 0.1 | -1.64 ± 0.13
AGCCAGCAAUAUUACGGCAG | -1.01 ± 0.065 | -1.18 ± 0.092
AGCCAGCAAUAUUACGGGAA | -2.59 ± 0.19 | -0.667 ± 0.12
AGCCAGCAAUAUUACGGGUA | -1.59 ± 0.094 | -1.08 ± 0.092
AGCCAGCAAUAUUACGGUAG | -2.6 ± 0.097 | -0.58 ± 0.085
AGCCAGCAAUAUUACGGUAU | -2.57 ± 0.1 | -1.14 ± 0.094
AGCCAGCAAUAUUACGGUCU | -3.08 ± 0.18 | -2.51 ± 0.18
AGCCAGCAAUAUUACGGUGG | -4.22 ± 0.19 | -2.17 ± 0.17
AGCCAGCAAUAUUACGUAUC | -2.85 ± 0.15 | -2.21 ± 0.23
AGCCAGCAAUAUUACGUCUC | -3.95 ± 0.37 | -2.78 ± 0.27
AGCCAGCAAUAUUACGUGGC | -3.74 ± 0.19 | -3.57 ± 0.29
AGCCAGCAAUAUUACGUUAU | -3.94 ± 0.19 | -1.75 ± 0.12
AGCCAGCAAUAUUACGUUCC | -2.02 ± 0.17 | -2.04 ± 0.28
AGCCAGCAAUAUUACGUUCU | -0.687 ± 0.053 | -0.266 ± 0.068
AGCGAGCAAUAUUACGAAUG | -3.8 ± 0.43 | -2.2 ± 0.42
AGCGAGCAAUAUUACGACUU | -0.736 ± 0.078 | 0.37 ± 0.1
AGCGAGCAAUAUUACGAGGG | -2.74 ± 0.3 | -1.19 ± 0.35
AGCGAGCAAUAUUACGAGUG | -2.92 ± 0.25 | -2.12 ± 0.26
AGCGAGCAAUAUUACGAUGC | -3.11 ± 0.45 | –
AGCGAGCAAUAUUACGCAGU | -4.48 ± 0.28 | -2.78 ± 0.25
AGCGAGCAAUAUUACGCCGA | – | -0.607 ± 0.36
AGCGAGCAAUAUUACGCCUG | -3.09 ± 0.3 | -2.24 ± 0.36

Sequence | self-splicing fitness (ln) (30 °C) | self-splicing fitness (ln) (37 °C)
AGCGAGCAAUAUUACGCUGA | -3.2 ± 0.18 | -2.51 ± 0.18
AGCGAGCAAUAUUACGCUGC | -1.51 ± 0.39 | -2.23 ± 0.42
AGCGAGCAAUAUUACGGAAU | -2.56 ± 0.26 | -2.66 ± 0.38
AGCGAGCAAUAUUACGGACU | -1.24 ± 0.15 | 0.232 ± 0.16
AGCGAGCAAUAUUACGGAUC | -3.42 ± 0.33 | -1.44 ± 0.49
AGCGAGCAAUAUUACGGCAG | -1.87 ± 0.14 | -1.07 ± 0.23
AGCGAGCAAUAUUACGGGUG | -2.75 ± 0.24 | -1.21 ± 0.21
AGCGAGCAAUAUUACGGUAA | -2.45 ± 0.27 | -2.49 ± 0.24
AGCGAGCAAUAUUACGGUCC | -0.807 ± 0.14 | -0.398 ± 0.18
AGCGAGCAAUAUUACGGUGC | -4.03 ± 0.28 | -2.97 ± 0.24
AGCGAGCAAUAUUACGUACA | -2.08 ± 0.31 | -1.89 ± 0.2
AGCGAGCAAUAUUACGUAUG | -3.68 ± 0.35 | -3.3 ± 0.32
AGCGAGCAAUAUUACGUCCU | -0.026 ± 0.17 | -0.661 ± 0.18
AGCGAGCAAUAUUACGUGCG | -2.67 ± 0.094 | -0.964 ± 0.098
AGCUAGCAAUAUUACGAAGA | -2.45 ± 0.24 | -2.86 ± 0.18
AGCUAGCAAUAUUACGAUAG | -3.51 ± 0.2 | -2.84 ± 0.23
AGCUAGCAAUAUUACGAUCA | -2.01 ± 0.12 | -0.168 ± 0.11
AGCUAGCAAUAUUACGAUUA | -2.31 ± 0.21 | -0.806 ± 0.14
AGCUAGCAAUAUUACGCCAU | -1.92 ± 0.31 | -1.91 ± 0.43
AGCUAGCAAUAUUACGCUAC | -2.68 ± 0.48 | -2.77 ± 0.38
AGCUAGCAAUAUUACGCUGC | -3.59 ± 0.48 | –
AGCUAGCAAUAUUACGGACA | -1.06 ± 0.12 | 0.0203 ± 0.15
AGCUAGCAAUAUUACGGAGC | -2.44 ± 0.17 | -1.46 ± 0.23
AGCUAGCAAUAUUACGGAUA | -2.55 ± 0.17 | -1.87 ± 0.14
AGCUAGCAAUAUUACGGCCU | -0.139 ± 0.073 | -0.106 ± 0.091
AGCUAGCAAUAUUACGGGUA | -1.27 ± 0.073 | -0.597 ± 0.082

Sequence | self-splicing fitness (ln) (30 °C) | self-splicing fitness (ln) (37 °C)
AGCUAGCAAUAUUACGGGUU | -2.74 ± 0.14 | -2.12 ± 0.18
AGCUAGCAAUAUUACGUAAA | -3.11 ± 0.19 | -1.14 ± 0.16
AGCUAGCAAUAUUACGUUGA | -2.68 ± 0.23 | -1.69 ± 0.16
AGGAAGCAAUAUUACGAACG | -1.19 ± 0.14 | -0.0957 ± 0.18
AGGAAGCAAUAUUACGACCU | -2.74 ± 0.22 | -2.29 ± 0.21
AGGAAGCAAUAUUACGAGUA | -2.59 ± 0.15 | -2.21 ± 0.17
AGGAAGCAAUAUUACGAUAC | -3.27 ± 0.26 | -2.02 ± 0.2
AGGAAGCAAUAUUACGAUCU | -0.809 ± 0.085 | -0.905 ± 0.11
AGGAAGCAAUAUUACGCGGG | -1.85 ± 0.18 | -1.67 ± 0.14
AGGAAGCAAUAUUACGCUAG | -2.44 ± 0.42 | –
AGGAAGCAAUAUUACGCUUA | -2.41 ± 0.2 | -0.908 ± 0.17
AGGAAGCAAUAUUACGGAAG | -2.98 ± 0.25 | -2.28 ± 0.39
AGGAAGCAAUAUUACGGAGU | -2.89 ± 0.17 | -1.7 ± 0.22
AGGAAGCAAUAUUACGGAUU | -2.3 ± 0.12 | -1.55 ± 0.14
AGGAAGCAAUAUUACGGCCA | -0.118 ± 0.14 | 0.223 ± 0.19
AGGAAGCAAUAUUACGGCGC | -0.231 ± 0.11 | -0.104 ± 0.15
AGGAAGCAAUAUUACGGGGG | – | -1.89 ± 0.36
AGGAAGCAAUAUUACGGUGU | -3.33 ± 0.16 | -1.48 ± 0.1
AGGAAGCAAUAUUACGUACG | -1.15 ± 0.11 | -0.064 ± 0.1
AGGAAGCAAUAUUACGUAGG | -3 ± 0.15 | -2.3 ± 0.23
AGGAAGCAAUAUUACGUUGA | – | -1.63 ± 0.46
AGGAAGCAAUAUUACGUUUU | -4.64 ± 0.31 | -1.82 ± 0.23
AGGCAGCAAUAUUACGAAAU | -1.8 ± 0.13 | -1.34 ± 0.15
AGGCAGCAAUAUUACGAACG | -1.11 ± 0.14 | 0.48 ± 0.16
AGGCAGCAAUAUUACGACCA | -0.404 ± 0.11 | 0.544 ± 0.17
